The results in this text go back to patent US20240301385, “DNA MODIFYING ENZYMES AND ACTIVE FRAGMENTS AND VARIANTS THEREOF AND METHODS OF USE” (LIFEEDIT THERAPEUTICS, INC., published 2024).

The target of one data set is T1, APG00868-L16-nAPG07433.1 (synthetic).
T1 chain: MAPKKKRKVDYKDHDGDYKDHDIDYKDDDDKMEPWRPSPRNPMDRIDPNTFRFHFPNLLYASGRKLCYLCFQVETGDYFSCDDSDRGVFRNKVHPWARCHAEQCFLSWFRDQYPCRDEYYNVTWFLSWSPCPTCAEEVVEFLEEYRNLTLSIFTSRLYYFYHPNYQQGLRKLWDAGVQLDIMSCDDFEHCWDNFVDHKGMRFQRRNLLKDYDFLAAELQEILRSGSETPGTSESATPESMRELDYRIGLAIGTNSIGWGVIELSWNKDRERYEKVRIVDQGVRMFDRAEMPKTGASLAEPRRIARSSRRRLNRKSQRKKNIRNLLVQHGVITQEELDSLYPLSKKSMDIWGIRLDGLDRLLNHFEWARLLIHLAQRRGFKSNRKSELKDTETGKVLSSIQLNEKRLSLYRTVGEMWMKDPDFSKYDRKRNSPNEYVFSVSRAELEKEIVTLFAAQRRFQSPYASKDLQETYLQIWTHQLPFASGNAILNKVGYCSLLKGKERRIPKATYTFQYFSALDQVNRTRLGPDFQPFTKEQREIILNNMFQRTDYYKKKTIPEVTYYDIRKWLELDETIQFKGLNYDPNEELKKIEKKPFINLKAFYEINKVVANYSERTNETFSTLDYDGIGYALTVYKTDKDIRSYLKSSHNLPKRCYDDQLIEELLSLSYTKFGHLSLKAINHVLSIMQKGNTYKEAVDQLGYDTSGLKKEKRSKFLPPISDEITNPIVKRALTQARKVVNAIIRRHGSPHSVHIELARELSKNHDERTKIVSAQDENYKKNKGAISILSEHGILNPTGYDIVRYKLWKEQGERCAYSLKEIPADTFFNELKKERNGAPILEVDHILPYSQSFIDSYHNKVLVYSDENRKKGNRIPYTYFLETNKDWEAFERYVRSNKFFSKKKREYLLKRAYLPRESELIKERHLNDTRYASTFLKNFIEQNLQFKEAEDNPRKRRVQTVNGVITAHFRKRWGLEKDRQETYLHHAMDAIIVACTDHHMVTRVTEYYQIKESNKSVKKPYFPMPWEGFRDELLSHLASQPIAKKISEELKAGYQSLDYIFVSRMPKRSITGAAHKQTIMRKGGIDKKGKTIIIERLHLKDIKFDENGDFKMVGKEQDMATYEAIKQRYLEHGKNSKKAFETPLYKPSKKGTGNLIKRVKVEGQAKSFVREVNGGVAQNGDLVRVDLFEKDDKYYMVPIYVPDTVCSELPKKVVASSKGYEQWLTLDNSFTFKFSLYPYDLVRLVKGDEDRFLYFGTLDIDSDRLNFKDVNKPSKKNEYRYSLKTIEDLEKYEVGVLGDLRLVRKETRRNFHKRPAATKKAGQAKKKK
Briefly: cell_activity; HEK293FT; PAM SEQ 152. As to conditions: tags: SV40 NLS, 3xFLAG N-term; nucleoplasmin NLS C-term. The gist of the method:
(§1)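 Editing read out by next-generation sequencing (MiSeq 2×250) of PCR amplicons spanning the target site, analysed for INDELs or % cytosine conversion per position (position 1 nearest PAM).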

In a further data set the target is T2, APG30130-L32-nAPG07433.1 (synthetic).
T2 chain: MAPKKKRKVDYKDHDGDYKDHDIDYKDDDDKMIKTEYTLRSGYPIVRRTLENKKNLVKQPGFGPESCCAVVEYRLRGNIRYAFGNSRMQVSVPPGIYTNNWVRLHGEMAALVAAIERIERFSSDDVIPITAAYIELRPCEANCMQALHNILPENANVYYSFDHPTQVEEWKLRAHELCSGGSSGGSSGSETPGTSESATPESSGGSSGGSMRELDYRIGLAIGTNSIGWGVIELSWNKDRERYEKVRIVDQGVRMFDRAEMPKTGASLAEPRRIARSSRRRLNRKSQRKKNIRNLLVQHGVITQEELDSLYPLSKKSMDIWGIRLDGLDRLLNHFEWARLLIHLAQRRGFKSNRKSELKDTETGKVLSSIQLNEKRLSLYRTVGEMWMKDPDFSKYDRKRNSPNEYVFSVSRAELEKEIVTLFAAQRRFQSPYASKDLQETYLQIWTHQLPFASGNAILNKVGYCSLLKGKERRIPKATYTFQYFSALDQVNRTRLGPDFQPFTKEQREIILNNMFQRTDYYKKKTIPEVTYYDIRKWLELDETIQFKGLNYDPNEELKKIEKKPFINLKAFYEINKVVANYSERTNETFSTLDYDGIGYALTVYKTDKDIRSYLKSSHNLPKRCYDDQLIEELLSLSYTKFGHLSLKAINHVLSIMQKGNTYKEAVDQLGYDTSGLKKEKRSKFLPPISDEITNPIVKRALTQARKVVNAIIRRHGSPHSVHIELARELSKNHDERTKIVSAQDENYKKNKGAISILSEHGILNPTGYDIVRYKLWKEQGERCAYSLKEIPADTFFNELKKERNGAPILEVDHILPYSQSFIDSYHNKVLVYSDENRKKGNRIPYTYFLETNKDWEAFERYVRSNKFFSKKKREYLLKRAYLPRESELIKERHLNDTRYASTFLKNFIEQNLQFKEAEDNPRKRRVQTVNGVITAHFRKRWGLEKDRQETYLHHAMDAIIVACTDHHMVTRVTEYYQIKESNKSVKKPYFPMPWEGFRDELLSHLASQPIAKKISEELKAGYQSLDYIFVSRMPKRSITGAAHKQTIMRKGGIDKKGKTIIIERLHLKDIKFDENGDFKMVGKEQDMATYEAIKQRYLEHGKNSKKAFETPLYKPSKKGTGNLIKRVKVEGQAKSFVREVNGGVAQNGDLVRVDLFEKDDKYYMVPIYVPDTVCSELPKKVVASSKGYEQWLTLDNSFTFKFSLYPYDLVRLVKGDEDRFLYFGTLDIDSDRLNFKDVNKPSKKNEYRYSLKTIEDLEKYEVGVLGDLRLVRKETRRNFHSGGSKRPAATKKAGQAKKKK
The experiment in a line: cell_activity; HEK293FT; PAM SEQ 152. The settings on record: tags: SV40 NLS, 3xFLAG N-term; nucleoplasmin NLS C-term. In outline: as §1

B1: SGN001101 sgRNA ; SGN001101 target (ssRNA ; dsDNA)
RNA: AUAUUUUCUUUAAUGGUGCCAGGCAGUCAUAGUUCCAUUAAAGCCAAAAGUGGCUUUGAUGUUUCUAUGAUAAGGGUUUCGACCCGUGGCGUCGGGGAUCGCCUGCCCAUUGAAAUGGGCUUCUCCCCAU
DNA 1: ATATTTTCTTTAATGGTGCCAGGCA
DNA 2: TGCCTGGCACCATTAAAGAAAATAT
Turning to B1, the activity in the data set with APG00868-L16-nAPG07433.1 came out at 24.4 % mutated reads.

B2: SGN000929 sgRNA ; SGN000929 target (ssRNA ; dsDNA)
RNA: AUCUGGAGGGAACUUACAGCAUAUGGUCAUAGUUCCAUGAAAGCCAAAAGUGGCUUUGAUGUUUCUAUGAUAAGGGUUUCGGCCCGUGGCGUCGGGGAUCGCCUGCCCAUUCCGAUGGGCUUCUCCCCAUUUAUU
DNA 1: ATCTGGAGGGAACTTACAGCATATG
DNA 2: CATATGCTGTAAGTTCCCTCCAGAT
For B2, in the data set with APG00868-L16-nAPG07433.1, the activity is 20.6 % mutated reads.

B3: SGN000930 sgRNA ; SGN000930 target (ssRNA ; dsDNA)
RNA: GAACAACUCAAAUGGAAAUGAAUAUGUCAUAGUUCCAUGAAAGCCAAAAGUGGCUUUGAUGUUUCUAUGAUAAGGGUUUCGGCCCGUGGCGUCGGGGAUCGCCUGCCCAUUCCGAUGGGCUUCUCCCCAUUUAUU
DNA 1: GAACAACTCAAATGGAAATGAATAT
DNA 2: ATATTCATTTCCATTTGAGTTGTTC
B3 displayed an activity in the data set with APG30130-L32-nAPG07433.1 of 3.14 % mutated reads.

B4: SGN000194 sgRNA ; SGN000194 target (ssRNA ; dsDNA)
RNA: GCCGCACAGCAUUCAGGUCGGUCAUAGUUCCAUUAAAGCCAAAAGUGGCUUUGAUGUUUCUAUGAUAAGGGUUUCGACCCGUGGCGUCGGGGAUCGCCUGCCCAUUGAAAUGGGCUUCUCCCCAUUUAUU
DNA 1: GCCGCACAGCATTCAGGTCG
DNA 2: CGACCTGAATGCTGTGCGGC
B4: the activity with APG30130-L32-nAPG07433.1 is 3.29 % mutated reads.

B5: SGN000169 sgRNA ; SGN000169 target (ssRNA ; dsDNA)
RNA: CACAUCUCGAGCAAGACGUUGUCAUAGUUCCAUUAAAGCCAAAAGUGGCUUUGAUGUUUCUAUGAUAAGGGUUUCGACCCGUGGCGUCGGGGAUCGCCUGCCCAUUGAAAUGGGCUUCUCCCCAUUUAUU
DNA 1: CACATCTCGAGCAAGACGTT
DNA 2: AACGTCTTGCTCGAGATGTG
The molecule B5 came in with an activity with APG00868-L16-nAPG07433.1 of 16.4 % mutated reads.
